Assay results: the supplement of paper PMC11246515
± gives the standard deviation of the averaged measurements.

Test: total protein half-life in vivo (active degradation + dilution); higher = more stable protein
[1] = wild type E. coli NCM3722, growth: C-lim chemostat, doubling time 3 h
[2] = wild type E. coli NCM3722, growth: C-lim chemostat, doubling time 6 h
[3] = E. coli NCM3722 delta-clpP delta-lon delta-hslV, growth: N-lim chemostat, doubling time 6 h
[4] = E. coli NCM3722 delta-clpP, growth: N-lim chemostat, doubling time 6 h
[5] = E. coli NCM3722 delta-hslV, growth: N-lim chemostat, doubling time 6 h
[6] = E. coli NCM3722 delta-smpB, growth: N-lim chemostat, doubling time 6 h
[7] = wild type E. coli NCM3722, growth: C-lim chemostat, doubling time 12 h
[8] = wild type E. coli NCM3722, growth: N-lim chemostat, doubling time 6 h
[9] = wild type E. coli NCM3722, growth: N-lim chemostat, doubling time 12 h
[10] = wild type E. coli NCM3722, growth: P-lim chemostat, doubling time 6 h
[11] = wild type E. coli NCM3722, growth: P-lim chemostat, doubling time 12 h
[12] = E. coli NCM3722 delta-lon, growth: N-lim chemostat, doubling time 6 h

Sequence: MDTSLAEEVQQTMATLAPNRFFFMSPYRSFTTSGCFARFDEPAVNGDSPDSPFQQKLAALFADAKAQGIKNPVMVGAIPFDPRQPSSLYIPESWQSFSRQEKQASARRFTRSQSLNVVERQAIPEQTTFEQMVARAAALTATPQVDKVVLSRLIDITTDAAIDSGVLLERLIAQNPVSYNFHVPLADGGVLLGASPELLLRKDGERFSSIPLAGSARRQPDEVLDREAGNRLLASEKDRHEHELVTQAMKEVLRERSSELHVPSSPQLITTPTLWHLATPFEGKANSQENALTLACLLHPTPALSGFPHQAATQVIAELEPFDRELFGGIVGWCDSEGNGEWVVTIRCAKLRENQVRLFAGAGIVPASSPLGEWRETGVKLSTMLNVFGLH [P0AEJ2]
- total protein half-life in vivo [1]: 2.43 h
- total protein half-life in vivo [2]: 2.54 h

Sequence: MEHISTTTLIIILIIMVVISAYFSGSETGMMTLNRYRLRHMAKQGNRSAKRVEKLLRKPDRLISLVLIGNNLVNILASALGTIVGMRLYGDAGVAIATGVLTFVVLVFAEVLPKTIAALYPEKVAYPSSFLLAPLQILMMPLVWLLNAITRMLMRMMGIKTDIVVSGSLSKEELRTIVHESRSQISRRNQDMLLSVLDLEKMTVDDIMVPRSEIIGIDINDDWKSILRQLSHSPHGRIVLYRDSLDDAISMLRVREAWRLMSEKKEFTKETMLRAADEIYFVPEGTPLSTQLVKFQRNKKKVGLVVNEYGDIQGLVTVEDILEEIVGDFTTSMSPTLAEEVTPQNDGSVIIDGTANVREINKAFNWHLPEDDARTVNGVILEALEEIPVAGTRVRIGEYDIDILDVQDNMIKQVKVFPVKPLRESVAE
- total protein half-life in vivo [3]: 6.45 ± 0.94 h
- total protein half-life in vivo [4]: 6.26 ± 0.14 h
- total protein half-life in vivo [5]: 6.04 ± 0.47 h
- total protein half-life in vivo [6]: 5.75 ± 0.47 h
- total protein half-life in vivo [1]: 3.02 ± 0.34 h
- total protein half-life in vivo [2]: 6.47 ± 1.1 h
- total protein half-life in vivo [7]: 9.51 ± 2.4 h
- total protein half-life in vivo [8]: 6.56 ± 0.41 h
- total protein half-life in vivo [9]: 11.6 ± 1 h
- total protein half-life in vivo [10]: 6 ± 0.074 h
- total protein half-life in vivo [11]: 10.9 ± 1 h

Sequence: MIHAFIKKGCFQDSVSLMIISRKLSESENVDDVSVMMGTPANKALLDTTGFWHDDFNNATPNDICVAIRSEAADAGIAQAIMQQLEEALKQLAQGSGSSQALTQVRRWDSACQKLPDANLALISVAGEYAAELANQALDRNLNVMMFSDNVTLEDEIQLKTRAREKGLLVMGPDCGTSMIAGTPLAFANVMPEGNIGVIGASGTGIQELCSQIALAGEGITHAIGLGGRDLSREVGGISALTALEMLSADEKSEVLAFVSKPPAEAVRLKIVNAMKATGKPTVALFLGYTPAVARDENVWFASSLDEAARLACLLSRVTARRNAIAPVSSGFICGLYTGGTLAAEAAGLLAGHLGVEADDTHQHGMMLDADSHQIIDLGDDFYTVGRPHPMIDPTLRNQLIADLGAKPQVRVLLLDVVIGFGATADPAASLVSAWQKACAARLDNQPLYAIATVTGTERDPQCRSQQIATLEDAGIAVVSSLPEATLLAAALIHPLSPAAQQHTPSLLENVAVINIGLRSFALELQSASKPVVHYQWSPVAGGNKKLARLLERLQ
- total protein half-life in vivo [1]: 2.65 h
- total protein half-life in vivo [2]: 4.54 h

Sequence: MEKLRVGIVFGGKSAEHEVSLQSAKNIVDAIDKSRFDVVLLGIDKQGQWHVSDASNYLLNADDPAHIALRPSATSLAQVPGKHEHQLIDAQNGQPLPTVDVIFPIVHGTLGEDGSLQGMLRVANLPFVGSDVLASAACMDKDVTKRLLRDAGLNIAPFITLTRANRHNISFAEVESKLGLPLFVKPANQGSSVGVSKVTSEEQYAIAVDLAFEFDHKVIVEQGIKGREIECAVLGNDNPQASTCGEIVLTSDFYAYDTKYIDEDGAKVVVPAAIAPEINDKIRAIAVQAYQTLGCAGMARVDVFLTPENEVVINEINTLPGFTNISMYPKLWQASGLGYTDLITRLIELALERHAADNALKTTM [P0A6J8]
- total protein half-life in vivo [3]: 4.83 ± 0.18 h
- total protein half-life in vivo [4]: 5.65 ± 1.4 h
- total protein half-life in vivo [5]: 4.95 ± 0.063 h
- total protein half-life in vivo [12]: 6.41 ± 1.5 h
- total protein half-life in vivo [6]: 4.9 ± 0.21 h
- total protein half-life in vivo [1]: 2.99 ± 0.12 h
- total protein half-life in vivo [7]: 10.5 ± 0.68 h
- total protein half-life in vivo [8]: 4.89 ± 0.086 h
- total protein half-life in vivo [9]: 8.61 ± 0.1 h
- total protein half-life in vivo [10]: 5.56 ± 0.49 h
- total protein half-life in vivo [11]: 11.5 ± 0.22 h

Sequence: MNKILLVDDDRELTSLLKELLEMEGFNVIVAHDGEQALDLLDDSIDLLLLDVMMPKKNGIDTLKALRQTHQTPVIMLTARGSELDRVLGLELGADDYLPKPFNDRELVARIRAILRRSHWSEQQQNNDNGSPTLEVDALVLNPGRQEASFDGQTLELTGTEFTLLYLLAQHLGQVVSREHLSQEVLGKRLTPFDRAIDMHISNLRRKLPDRKDGHPWFKTLRGRGYLMVSAS [P0AE88]
- total protein half-life in vivo [3]: 5.73 ± 0.89 h
- total protein half-life in vivo [4]: 4.96 ± 0.36 h
- total protein half-life in vivo [5]: 4.848 ± 0.016 h
- total protein half-life in vivo [6]: 5.11 ± 0.091 h
- total protein half-life in vivo [1]: 3.28 ± 0.5 h
- total protein half-life in vivo [2]: 5.44 ± 0.21 h
- total protein half-life in vivo [7]: 11.4 ± 0.69 h
- total protein half-life in vivo [8]: 6 ± 1.4 h
- total protein half-life in vivo [9]: 8.76 ± 0.57 h
- total protein half-life in vivo [10]: 6.01 ± 0.11 h
- total protein half-life in vivo [11]: 10.9 ± 0.17 h

Sequence: MKQHQSADNSQGQLYIVPTPIGNLADITQRALEVLQAVDLIAAEDTRHTGLLLQHFGINARLFALHDHNEQQKAETLLAKLQEGQNIALVSDAGTPLINDPGYHLVRTCREAGIRVVPLPGPCAAITALSAAGLPSDRFCYEGFLPAKSKGRRDALKAIEAEPRTLIFYESTHRLLDSLEDIVAVLGESRYVVLARELTKTWETIHGAPVGELLAWVKEDENRRKGEMVLIVEGHKAQEEDLPADALRTLALLQAELPLKKAAALAAEIHGVKKNALYKYALEQQG
- total protein half-life in vivo [3]: 6.24 ± 1.1 h
- total protein half-life in vivo [4]: 5.77 ± 0.73 h
- total protein half-life in vivo [5]: 5.85 ± 0.46 h
- total protein half-life in vivo [12]: 5.1 ± 0.5 h
- total protein half-life in vivo [6]: 5.25 ± 0.13 h
- total protein half-life in vivo [1]: 3.41 ± 0.11 h
- total protein half-life in vivo [7]: 11.8 ± 2.3 h
- total protein half-life in vivo [8]: 5.57 ± 0.17 h
- total protein half-life in vivo [9]: 10.5 ± 0.56 h
- total protein half-life in vivo [10]: 5.46 ± 0.11 h
- total protein half-life in vivo [11]: 12.4 ± 0.41 h

Sequence: MSRPLLQLALDHSSLEAAQRDVTLLKDSVDIVEAGTILCLNEGLGAVKALREQCPDKIIVADWKVADAGETLAQQAFGAGANWMTIICAAPLATVEKGHAMAQRCGGEIQIELFGNWTLDDARDWHRIGVRQAIYHRGRDAQASGQQWGEADLARMKALSDIGLELSITGGITPADLPLFKDIRVKAFIAGRALAGAANPAQVAGDFHAQIDAIWGGARA
- total protein half-life in vivo [3]: 4.65 h
- total protein half-life in vivo [4]: 4 h
- total protein half-life in vivo [5]: 4.08 ± 0.35 h
- total protein half-life in vivo [12]: 4.77 h
- total protein half-life in vivo [6]: 4.3 ± 0.38 h
- total protein half-life in vivo [1]: 3.07 ± 0.25 h
- total protein half-life in vivo [2]: 5.17 ± 0.32 h
- total protein half-life in vivo [7]: 9.07 ± 0.79 h
- total protein half-life in vivo [8]: 3.93 h
- total protein half-life in vivo [9]: 6.66 ± 0.91 h
- total protein half-life in vivo [10]: 5.76 h
- total protein half-life in vivo [11]: 9.91 ± 0.32 h

Sequence: MPEPVAEPALNGLRLNLRIVSIVMFNFASYLTIGLPLAVLPGYVHDVMGFSAFWAGLVISLQYFATLLSRPHAGRYADSLGPKKIVVFGLCGCFLSGLGYLTAGLTASLPVISLLLLCLGRVILGIGQSFAGTGSTLWGVGVVGSLHIGRVISWNGIVTYGAMAMGAPLGVVFYHWGGLQALALIIMGVALVAILLAIPRPTVKASKGKPLPFRAVLGRVWLYGMALALASAGFGVIATFITLFYDAKGWDGAAFALTLFSCAFVGTRLLFPNGINRIGGLNVAMICFSVEIIGLLLVGVATMPWMAKIGVLLAGAGFSLVFPALGVVAVKAVPQQNQGAALATYTVFMDLSLGVTGPLAGLVMSWAGVPVIYLAAAGLVAIALLLTWRLKKRPPEHVPEAASSS
- total protein half-life in vivo [4]: 3.62 h
